The results in this text go back to article PMC2346476.

This assay deals with recombinant His6-tagged Drosophila PP1α87B (pET28a) (Drosophila) (UniProt P12982).
Chain of UniProt P12982 (P12982 whole entry): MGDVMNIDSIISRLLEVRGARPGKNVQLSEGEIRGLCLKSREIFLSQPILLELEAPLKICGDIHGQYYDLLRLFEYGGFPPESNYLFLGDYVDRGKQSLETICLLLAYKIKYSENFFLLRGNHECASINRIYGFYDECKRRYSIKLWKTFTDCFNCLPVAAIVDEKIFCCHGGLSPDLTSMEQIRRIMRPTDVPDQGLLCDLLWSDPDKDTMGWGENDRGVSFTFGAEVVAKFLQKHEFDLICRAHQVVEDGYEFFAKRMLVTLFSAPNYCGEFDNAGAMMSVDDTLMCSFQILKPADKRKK

B1: recombinant His6-tagged Drosophila Uri (pET-28m), bacterially expressed (natural protein)
chain: MDRREDALLQALQTNASETERWEAFKRDNESTIRNLDKFAKNLSVEVMVPIGRKALMPGELIHTNELLVGHYEGYFSACSSHKAKEICQYRLKLAEEQLKKLAVENDLWQKKLHTPFAEGAVPSGDQVEIVEDFNEESHNKWLAEHRKRMRQQKQKERLEREAEPVKKDNEVLRKLEEREMMEELGLDPDNIDEDQLHDMLNQEPLKSTNESSPKSLTQEEEDELWKKLEAEEQNEADELSSEAEESLKTTDNLVRQLMSGETETPSSKKRTAGTNRNVEIQDPISEDDGDDDDEGDQEEEVRTIREQMSLLPNEDREPFLRAQLHVLKAKMRKIQKVNFISDELIHLMNVVVMLEDDLQDLVFEQELEASEEEEEVVENNHLPDEPSKELSTVSESSTNKRRISFALDDEKLEFRREETVAEMLPNAKKNSRDIIKLNAPLKPAGDPQPASIKTKRQTTQDILQKVERNIEFVKENQSVQDFDLLNRIMEESTGLINTLHISFTHSGAIPSPSSDQSDGIPGKPSDFYVRYEKDRARPNDSFPIYVNGFEGEEHVKVPIMSEAARGSAYEDPRSQFSKPNSSEICFTHSGSITPTSNDQSDDIPGNPFDFYEKYEKDRAKFSKSNSSEGDATDPESATKSILRNKSAVDLEPHNVNQQPKKGRKVRNQKKKERTLDDDLRDMSAYQKVMHDLVEKEPTAPEPLPPGKFIDSHAPKKRVSRFKEQRALNKT
For the molecule B1, the inhibition of the myelin basic protein phosphatase activity of recombinant PP1α87B by Uri; IC50 of Uri relative to its IC50 against PP1β9C turned out to be 25 fold.
